# B1: GN351: lysin-AMP construct: TAGGTAGG linker and amurin peptide Ecp2 C-terminal to GN316 lysin (SEQ ID NO: 32) (protein)
# chain: MAILKIGSKGLEVKNLQTSLNKIGFNLVADGIFGKATDNAVRAVQAGAGLVVDGIAGPKTMYAIRNAGESHQDHLTEADLIDAARELSVDLASIKAVNQVESRGTGFTKSGKIKTLFERHIMYKKLNAKFGQAKANALAQLYPTLVNAKAGGYTGGDAELERLHGAIAIDKDCAYESASYGLFQIMGFNCVICGYDNAEEMFNDFLTGERAQLMAFVKFIKADANLWKALKDKNWAEFARRYNGPAYAQNQYDTKLAAAYKSFSTAGGTAGGARSRRRMSKRSSRRSFRKYAKSHKKNFKARSMRGGIRL
# Key:
# [1] = test system: P. aeruginosa strain WC-453; assay: Time-kill assay in HEPES or CAA with 25% human serum (Tables 7, 8); format: cell-based, Pseudomonas aeruginosa
# Procedure: Exponential phase bacteria were then pelleted and resuspended in 1/5 culture volume of 25 mM HEPES, pH 7.4 before a final adjustment to an optical density corresponding to a McFarland value of 0.5. […] All treatments were incubated at 37° C. with aeration. At time points before the addition of lysin (or buffer control) and at 1 hour and 3 hours intervals thereafter, culture samples were removed for quantitative plating on CAA agar plates.
# P. aeruginosa isolates = assay: MIC against a range of isolates in CAA + […] human serum (Table 11); format: cell-based, Pseudomonas aeruginosa
# P. aeruginosa strains = assay: Checkerboard synergy with meropenem in 25% CAA and […] human serum (Table 16); format: cell-based, Pseudomonas aeruginosa; details: for FICI value (Run #1), with meropenem / FICI value (Run #2), with meropenem: 25% CAA and […] human serum
# [2] = test system: outer membrane of P. aeruginosa (CFS 1292); assay: N-phenyl-1-napthylamine (NPN) uptake assay, outer membrane destabilization (Table 15); format: cell-based, Pseudomonas aeruginosa; details: NPN fluorescence, buffer = 100, lysin 100 μg/well
# Procedure: The ability of gram-negative lysins to destabilize the outer membrane of P. aeruginosa was evaluated through the use of an N-phenyl-1-napthylamine (NPN) uptake assay. […] NPN was added to a final concentration of […]. […] Changes in fluorescence were recorded (excitation 1=350 nm; emission 1=420 nm) over two hours.
# [3] = test system: biofilms formed by P. aeruginosa strain ATCC 17646; details: strain ATCC 17646 biofilm
# Procedure: (§1) Biofilms are then washed and treated with e.g., a 2-fold dilution series of the lysin in TSBg at e.g., 37° C. for 24 hours. After treatment, wells are washed, air-dried at e.g., 37° C. and stained with e.g., 0.05% crystal violet for 10 minutes.
# [4] = test system: Pseudomonas aeruginosa strain CFS-1292 (meropenem resistant); assay: MIC in 25% CAA alone, with […] human serum or […] SURVANTA (Table 13); format: cell-based
# Procedure: (§2) Materials and methods: MICs were determined by broth microdilution in media supplemented with human serum and pulmonary surfactant ([…]®; Myoderm Clinical Supplies). Minimal biofilm eradicating concentrations (MBECs) were determined using standard methods. […] Fluorescence microscopy was performed after LIVE/DEAD staining (ThermoFisher) and TEM was performed.
# [5] = test system: Pseudomonas aeruginosa biofilm; assay: MBEC in CAA supplemented with […] human serum (Table 14); format: cell-based
# Procedure: as §1, §2
# P. aeruginosa = assay: MIC, modified CLSI broth microdilution in CAA medium without or with […] human serum (Table 4); format: cell-based, Pseudomonas aeruginosa; as to CAA/HuS MIC: CAA supplemented with 2.5% human serum
# Excerpt: 2015. […] Clinical and Laboratory Standards Institute, Wayne, Pa.
# [6] = test system: Pseudomonas aeruginosa strain CFS-1292 (meropenem resistant); details: strain CFS-1292; no added cations
# Procedure: The activity of selected GN lysins and constructs in the presence of divalent cations was evaluated, and the impact of divalent cations at physiological concentrations was examined in the MIC assay format.
# [7] = test system: carbapenem-resistant P. aeruginosa strains; assay: Resensitization of carbapenem-resistant strains, combinations with imipenem or meropenem (Tables 18-22); format: cell-based, Pseudomonas aeruginosa; details: for FICI: isolate WC-452
# Procedure: Such resensitization may be determined by combining the present lysins or lysin-AMP polypeptide constructs with an antibiotic in a checkerboard assay as described herein. Antibiotic-resistant bacteria, such as carbapenem-resistant P. aeruginosa, are added to the lysin or lysin-AMP polypeptide construct combination. […] See Clinical and Laboratory Standards Institute (CLSI), CLSI. […] M100 Performance Standards for Antimicrobial Susceptibility Testing; 29th Edition. Clinical and Laboratory Standards Institute, Wayne, Pa., which is herein incorporated by reference in its entirety.
# Up to seven carbapenem-resistant isolates were assessed. […] See Clinical and Laboratory Standards Institute (CLSI), CLSI. […] M100 Performance Standards for Antimicrobial Susceptibility Testing; 29th Edition. Clinical and Laboratory Standards Institute, Wayne, Pa.
molecule,measurement,setting,value
B1,"bactericidal activity (CFU decrease of 3-Log10, 3 hours after the addition of lysin)","[1]; 10 μg/mL, enumerated lysins in CAA/HuS, general statement for HEPES and CAA/HuS",bactericidal activity
same,"CAA/HuS (Log10 CFU/mL), 1 hr","[1]; CAA + 25% human serum, lysin 10 μg/ml, 1 hr, WC-453",4.6 Log10 CFU/mL
same,"CAA/HuS (Log10 CFU/mL), 3 hr","[1]; CAA + 25% human serum, lysin 10 μg/ml, 3 hr, WC-453",<3.7 Log10 CFU/mL
same,activity against P. aeruginosa isolates in human serum or SURVANTA,P. aeruginosa isolates; Tables 11 and 12,active against a variety of P. aeruginosa isolates
same,"MIC, CAA + […] Human Serum",P. aeruginosa isolates; strain CFS 1109 (ATCC 17646),1 µg/mL
same,"MIC, CAA + […] Human Serum",P. aeruginosa isolates; strain CFS 1292,1 µg/mL
same,"MIC, CAA + […] Human Serum",P. aeruginosa isolates; strain CFS1539 (PA1),0.5 µg/mL
same,"MIC, CAA + […] Human Serum",P. aeruginosa isolates; strain CFS 1540 (PA2),0.5 µg/mL
same,"MIC, CAA + […] Human Serum",P. aeruginosa isolates; strain CFS 1541 (PA3),0.5 µg/mL
same,"MIC, CAA + […] Human Serum",P. aeruginosa isolates; strain CFS 1557 (PA19),4 µg/mL
same,"MIC, CAA + […] Human Serum",P. aeruginosa isolates; strain CFS 1558 (PA20),1 µg/mL
same,"MIC, CAA + […] Human Serum",P. aeruginosa isolates; strain CFS 1559 (PA21),2 µg/mL
same,"MIC, CAA + […] Human Serum",P. aeruginosa isolates; strain CFS 1560 (PA22),2 µg/mL
same,"MIC, CAA + […] Human Serum",P. aeruginosa isolates; strain CFS 1561 (PA23),2 µg/mL
same,"MIC, CAA + […] Human Serum",P. aeruginosa isolates; strain CFS 1562 (PA24),2 µg/mL
same,"MIC, CAA + […] Human Serum",P. aeruginosa isolates; strain CFS 1596 (PA26),1 µg/mL
same,"MIC, CAA + […] Human Serum",P. aeruginosa isolates; strain CFS 1597 (PA27),0.5 µg/mL
same,"MIC, CAA + […] Human Serum",P. aeruginosa isolates; strain CFS 1669 (PA41),1 µg/mL
same,"MIC, CAA + […] Human Serum",P. aeruginosa isolates; strain CFS 1674 (PA46),1 µg/mL
same,"MIC, CAA + […] Human Serum",P. aeruginosa isolates; strain CFS 1675 (PA47),0.5 µg/mL
same,"MIC, CAA + […] Human Serum",P. aeruginosa isolates; strain CFS 1766 (ATCC 27853),2 µg/mL
same,synergy with meropenem,P. aeruginosa strains; FICI less than or equal to 0.5 = potent synergy,exhibited synergy with meropenem
same,"FICI value (Run #1), with meropenem",P. aeruginosa strains; strain CFS 1292,0.1875
same,"FICI value (Run #2), with meropenem",P. aeruginosa strains; strain CFS 1292,0.219
same,"FICI value (Run #1), with meropenem",P. aeruginosa strains; strain CFS 1557 (PA19),0.25
same,"FICI value (Run #2), with meropenem",P. aeruginosa strains; strain CFS 1557 (PA19),0.292
same,"FICI value (Run #1), with meropenem",P. aeruginosa strains; strain CFS 1558 (PA20),0.1562
same,"FICI value (Run #2), with meropenem",P. aeruginosa strains; strain CFS 1558 (PA20),0.177
same,"FICI value (Run #2), with meropenem",P. aeruginosa strains; strain CFS 1559 (PA21),0.177
same,"FICI value (Run #2), with meropenem",P. aeruginosa strains; strain CFS 1560 (PA22),0.323
same,"FICI value (Run #2), with meropenem",P. aeruginosa strains; strain CFS 1561 (PA23),0.240
same,"FICI value (Run #2), with meropenem",P. aeruginosa strains; strain CFS 1562 (PA24),0.177
same,"FICI value (Run #2), with meropenem",P. aeruginosa strains; strain CFS 1766 (ATCC 27853),0.109
same,% RFU,[2]; 5 minutes,381 % RFU
same,% RFU,[2]; 10 minutes,406 % RFU
same,% RFU,[2]; 20 minutes,407 % RFU
same,% RFU,[2]; 40 minutes,386 % RFU
same,% RFU,[2]; 60 minutes,383 % RFU
same,% RFU,[2]; 100 minutes,338 % RFU
same,MBEC,[3],1 µg/mL
same,MIC in […] Survanta,[4],4 µg/mL
same,MIC in human serum ([…]) in CAA,[4],0.0625 µg/mL
same,activity in human serum and pulmonary surfactant,[4],active in human serum and pulmonary surfactant
same,25% CAA MIC,[4]; media alone,1
same,MBEC in CAA supplemented with […] human serum,[5],0.5 µg/mL
same,CAA MIC,"P. aeruginosa; CAA medium, no human serum",8000 µg/mL
same,CAA/HuS MIC,P. aeruginosa; CAA supplemented with […] human serum,125 µg/mL
same,MIC in 25% CAA,[6],1 µg/mL
same,resensitization to carbapenems in synergistic combinations,"[7]; imipenem (IPM) and meropenem (MEM), carbapenem-resistant isolates",reductions of IPM and MEM MICS to below breakpoint values
same,FICI,[7]; lysin + imipenem,0.156
same,FICI,[7]; lysin + meropenem,0.188
same,"Antibiotic MIC / Lysin MIC, Alone",[7]; vs. WC-452 (Table 22),1
